Target: OTi TCR on OT-I mouse T cells
Test: cell-based or functional assay

FITC-conjugated tetramer H2Kb-SIINFEKL (from UniProt P01901 22-305) (peptide-MHC)
cytotoxicity of human primary CD8 anti-FITC CAR T cells on OTi cells: > 50%
